The source of these data is paper doi:10.1101/2022.03.13.484121.

The target of assay [1] is meprin α R372T, mature (activated) form (human (from the printed accession)) (UniProt Q16819). Nature of the assay: MALDI-TOF mass spectrometry.
Assay [2] has as its target pro-meprin α C308A (human (from the printed accession)) (UniProt Q16819). The experiment in a line: SEC-MALS. On the technique in general: SEC sorts molecules by how far they enter the pores of the column.

On to “meprin α R372T, mature (activated) form (from UniProt Q16819 22-600) (enzyme)”, for which the stoichiometry N (commonly the number of molecules, sites or subunits per partner or assembly) in assay [1] is 2.
Take “pro-meprin α C308A (from UniProt Q16819 22-600) (enzyme)”: in assay [2], the stoichiometry N stood at 2.
